Test results: paper PMC11796402, “Overcoming barriers for investigating nickel-pincer nucleotide cofactor-related enzymes” (mBio, 2024)

Experiments:
[1] = substrate: C[C@@H](O)C(=O)O; assay: purified protein; assay type: biochemical, Lactiplantibacillus plantarum; conditions: PBS pH 7.4, 35°C, 2.13 µM enzyme, racemization to L-lactate
[2] = substrate: C[C@H](O)C(=O)O; assay: purified protein; assay type: biochemical, Lactiplantibacillus plantarum; conditions: PBS pH 7.4, 35°C, 2.13 µM enzyme, racemization to D-lactate

B1: LarALp (Lactiplantibacillus plantarum WCFS1) (protein)
chain: VAIDLPYDKRTITAQIDDENYAGKLVSQAATYHNKLSEQETVEKSLDNPIGSDKLEELARGKHNIVIISSDHTRPVPSHIITPILLRRLRSVAPDARIRILVATGFHRPSTHEELVNKYGEDIVNNEEIVMHVSTDDSSMVKIGQLPSGGDCIINKVAAEADLLISEGFIESHFFAGFSGGRKSVLPGIASYKTIMANHSGEFINSPKARTGNLMHNSIHKDMVYAARTAKLAFIINVVLDEDKKIIGSFAGDMEAAHKVGCDFVKELSSVPAIDCDIAISTNGGYPLDQNIYQAVKGMTAAEATNKEGGTIIMVAGARDGHGGEGFYHNLADVDDPKEFLDQAINTPRLKTIPDQWTAQIFARILVHHHVIFVSDLVDPDLITNMHMELAKTLDEAMEKAYAREGQAAKVTVIPDGLGVIVK
notes: co-expressed with L. plantarum LarB, LarC, LarE in E. coli BL21(DE3) (Duet, pAT035/pAT038)
- Km [1]: 23 ± 12 mM
- kcat [1]: 185 ± 12 s⁻¹
- Km [2]: 32 ± 10 mM
- kcat [2]: 179 ± 25 s⁻¹
